Four molecules from patent US20240084005A1 (ALLAKOS, published 2024) can be followed below.

The EC50 is the concentration needed to bring the measured effect to its halfway point. A low value points to an effect from little substance.

For test [1], the target named is T1, Siglec-6 domain 1 fused to a human Fc (human, UniProt O43699 27-147).
T1 construct: also called domain 1 fusion protein; not shown: human Fc
In words: ELISA on Siglec-6 domain-human Fc fusions (Domain Mapping = 2). As for the experimental part:
Domain mapping was assessed by ELISA using recombinantly expressed Siglec-6 extracellular domains fused to a human Fc containing the full ECD, domains 1 and 2, or domain 1. Siglec-6 mAbs were tested for binding to each of these domain fusion proteins and assigned domains based on their specific binding properties. Siglec-6 mAbs that bound to all three fusion proteins were assigned domain 1 binders, mAbs that bound to full ECD and domains 1 and 2 were assigned domain 2 binders, and mAbs that bound to only the full ECD protein were assigned domain 3 binders.

For the next test, the target named is T2, Siglec-6 ECD Fc protein (human, UniProt O43699 27-347).
T2 construct: also called Siglec-6 full ECD fused to a human Fc; not shown: human Fc
In words: BLI (Octet Red 384), bivalent IgG on immobilized Siglec-6 ECD Fc. As for the experimental part:
Bivalent binding affinities of IgG for Siglec-6 mAbs were measured by biolayer interferometry using a FortéBio Octet Red 384 instrument using immobilized Siglec-6 ECD Fc protein.
A general note: Biolayer interferometry detects binding as a change in optical thickness at a sensor tip.

Test [2] addresses T3, Siglec-6 (antigen of Example 8) (human, UniProt O43699 27-347, limits assumed). Put plainly: Siglec-6 binding ELISA after 2 weeks of forced degradation (elevated temperature, low pH). As for the experimental part: AK20 and AK21 were further evaluated in a forced degradation stability study. AK20 and AK21 (both using a wild-type human IgG1 Fc region with normal fucosylation) were incubated for 2 weeks at elevated temperatures and low pH followed by assessment of activity using a Siglec-6 binding ELISA.
On the technique in general: In an ELISA, binding on a coated surface is turned into a signal by an enzyme label.

Test [3] deals with T3, Siglec-6 (antigen of Example 8). In words: Siglec-6 binding ELISA after 1 week of forced degradation (elevated temperature, low pH); 1 week of forced degradation (elevated temperatures and low pH).
Test [4] shares this target. In words: Siglec-6 binding ELISA after 1 week of forced degradation (elevated temperature, low pH).

T3 sequence (O43699 27-347 limits assumed): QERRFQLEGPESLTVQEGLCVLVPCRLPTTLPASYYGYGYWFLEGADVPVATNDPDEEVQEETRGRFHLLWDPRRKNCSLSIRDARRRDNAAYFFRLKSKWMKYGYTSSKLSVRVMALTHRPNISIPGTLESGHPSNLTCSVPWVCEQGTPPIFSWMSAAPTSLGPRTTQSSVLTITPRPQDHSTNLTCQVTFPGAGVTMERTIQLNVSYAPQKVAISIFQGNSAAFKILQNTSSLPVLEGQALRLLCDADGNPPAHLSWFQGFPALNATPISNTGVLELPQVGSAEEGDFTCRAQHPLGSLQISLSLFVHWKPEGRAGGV
T1 sequence (O43699 27-147 limits assumed): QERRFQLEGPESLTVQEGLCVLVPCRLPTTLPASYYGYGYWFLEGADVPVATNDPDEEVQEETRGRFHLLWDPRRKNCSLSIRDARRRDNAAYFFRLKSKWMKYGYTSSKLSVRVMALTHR
T2 sequence (O43699 27-347): as the sequence (O43699 27-347 limits assumed) above

B1: AK11 (antibody, V domains shown)
VH: EVMLVESGGGLVKPGGSLKLSCAASGFSFSTYVMSWVRQTPEKRLEWVASISGGGSNTYYPDSVKGRFTISRDNAKNTLYLQMSSLRSEDTALYYCARREVVVYWYFDVWGTGTTVTVSS
VL: DIQMTQSPASLSVSVGETVTITCRASENIYSNLAWYQQKQGKSPQLLVFSAKNLADGVPSRFGGSGSGTQYSLKINSLQSEDFGTYYCQHFWGTPLTFGAGTKLELK
notes: also called anti-Siglec-6 mAb AK11
Take B1: in test [1], the binding result is “no binding”. The same molecule returned a Kd in the test with Siglec-6 ECD Fc protein of 0.002 nM.

B2: AK10 (antibody, V domains shown)
VH: EVQLQQSGPELMKPGASVKISCKASGYTFTDYYMNWVKQSHGKSLEWIGDINPKIGDTIYNQKFKGKATLTVDKSSSTAYMELRSLTSEDSAVYYCARWDYYGSSLFDYWGQGTTLTVSS
VL: DIVMTQSHKFMSTSVGDRVSITCKASQDVTTAVAWYQQKPGQSPKLLIYWASTRHTGVPDRFTGTGSGTDYTLTISNVQAEDLALYYCQQHYSTPYTFGGGTKLEIK
notes: also called anti-Siglec-6 mAb AK10
B2: in test [1], the binding result is “no binding”. For the same molecule, the Kd in the test with Siglec-6 ECD Fc protein is 0.084 nM.

B3: AK20 (wild-type human IgG1 Fc) (antibody, V domains shown)
VH: QVQLQESGPGLVKPSETLSLTCTVSGFSLTSYGVSWIRQPPGKGLEWIGVIWHDGSTSYHPSLKSRVTISRDTSKNQVSLKLSSVTAADTAVYYCASDGYSGTFAYWGQGTLVTVSS
VL: QIVVTQSPATLSLSPGERATLSCTASSSVSSSYLHWYQQKPGQAPRLLIYSTSILASGIPARFSGSGSGTDFTLTISSLQPEDFAVYYCHQYHRSPYTFGQGTKLEIK
notes: Tested after forced degradation
As for B3, the 50% effective concentration (EC50) in test [2] is 6.4 ng/mL; in test [3], 6.5 ng/mL.

B4: AK21 (wild-type human IgG1 Fc) (antibody, V domains shown)
VH: QVQLQESGPGLVKPSETLSLTCTVSGFSLSSYGVSWIRQPPGKGLEWIGVIWHDGSTNYNPSLKSRVTISRDTSKNQVSLKLSSVTAADTAVYYCASDGYSGTFAYWGQGTLVTVSS
VL: QIVVTQSPATLSLSPGERATLSCTASSSVSSSYLHWYQQKPGQAPRLLIYSTSILASGIPARFSGSGSGTDFTLTISSLQPEDFAVYYCHQYHRSPYTFGQGTKLEIK
notes: as for B3
For B4, the EC50 came to 9.3 ng/mL in test [2] and 9.1 ng/mL in test [4].
